Data reported in publication PMC9224634, “Noninvasive Mapping of Angiotensin Converting Enzyme-2 in Pigeons Using Micro Positron Emission Tomography” (Life, 2022).

Key:
ACE2 [1] = target: ACE2; design: method as in earlier work; conditions: ACE2-specific peptide inhibitor; ref 10 (Huang et al.); cited from earlier work
ACE2 [2] = target: ACE2; design: method as in PMID 34174177; conditions: cited from earlier work
ACE2 [3] = test: in vivo; conditions: female, iv, 15 MBq
Experimental: Injection route: Chloral hydrate 10% was used for intramuscular anesthesia.
Micro PET/CT imaging: Four healthy pigeons (female) were injected with 15 MBq ^68Ga-HZ20 through the pterygoid vein, and then dynamic imaging was performed for 40 min to observe the dynamic distribution of the probe in the body. The images were acquired for 30 min, 40 min and 60 min, with a single PET scan time of 600 s. The Avator software was used to display the images, outline the region of interest for the main organs, record the maximum standard uptake values for the outlined areas, and calculate the dynamic changes in SUVmax for different organs. At the end of the 60 min imaging, the pigeons were euthanized and the main organs were obtained for in vitro imaging.

| Compound | Ki (ACE2 [1]) | Kd (ACE2 [2]) | SUV at 40 min (ACE2 [3]; SUVmax heart, final) | SUV at 0 h (ACE2 [3]; SUVmax heart, initial) | SUV at 20 min (ACE2 [3]; SUVmax kidney) | SUV at 20 min (ACE2 [3]; SUVmax lung) | SUV at 1 h (ACE2 [3]; kidney uptake (SUV)) | SUV at 1 h (ACE2 [3]; liver uptake (SUV)) | SUV at 40 min (ACE2 [3]; liver uptake (SUVmax)) | SUV (ACE2 [3]; liver uptake (SUVmax), initial) | SUV at 1 h (ACE2 [3]; lung uptake (SUV)) | SUV at 1 h (ACE2 [3]; stomach uptake (SUV)) | SUV at 40 min (ACE2 [3]; stomach uptake (SUVmax), peak) |
| --- | --- | --- | --- | --- | --- | --- | --- | --- | --- | --- | --- | --- | --- |
| Ac-GDYSHCSPLRYYPWWKCTYPDPEGGG-NH2 (disulfide) [DX600] | 2.8 nM | 98.7 nM |  |  |  |  |  |  |  |  |  |  |  |
| CC(C)C[C@@H]1NC(=O)[C@@H]2CCCN2C(=O)[C@H](CO)NC(=O)[C@@H](NC(=O)[C@H](Cc2c[nH]cn2)NC(=O)[C@H](CO)NC(=O)[C@H](Cc2ccc(O)cc2)NC(=O)[C@H](CC(=O)O)NC(=O)CNC(=O)CN2CCN(CC(=O)O)CCN(CC(=O)O)CCN(CC(=O)O)CC2)CSSC[C@@H](C(=O)N[C@H](C(=O)N[C@@H](Cc2ccc(O)cc2)C(=O)N2CCC[C@H]2C(=O)N[C@@H](CC(=O)O)C(=O)N2CCC[C@H]2C(=O)N[C@@H](CCC(=O)O)C(=O)NCC(=O)NCC(=O)NCC(N)=O)[C@@H](C)O)NC(=O)[C@H](CCCCN)NC(=O)[C@H](Cc2c[nH]c3ccccc23)NC(=O)[C@H](Cc2c[nH]c3ccccc23)NC(=O)[C@@H]2CCCN2C(=O)[C@H](Cc2ccc(O)cc2)NC(=O)[C@H](Cc2ccc(O)cc2)NC(=O)[C@H](CCCNC(=N)N)NC1=O [68Ga-HZ20, metal not drawn] |  |  | 0.84 SUV | 3.08 SUV | 6.95 SUV | 1.11 SUV | 3.05 SUV | 0.51 SUV | 2.51 SUV | 0.91 SUV | 0.41 SUV | 0.52 SUV | 0.63 SUV |
